Values of other authors in PMC8002558.
pKd: −log10 of the molar value.

Target: Fibrinogen (Homo sapiens) (UniProt P02671)
UniProt P02671, sequence (P02671 36-866, chain 1 of 3): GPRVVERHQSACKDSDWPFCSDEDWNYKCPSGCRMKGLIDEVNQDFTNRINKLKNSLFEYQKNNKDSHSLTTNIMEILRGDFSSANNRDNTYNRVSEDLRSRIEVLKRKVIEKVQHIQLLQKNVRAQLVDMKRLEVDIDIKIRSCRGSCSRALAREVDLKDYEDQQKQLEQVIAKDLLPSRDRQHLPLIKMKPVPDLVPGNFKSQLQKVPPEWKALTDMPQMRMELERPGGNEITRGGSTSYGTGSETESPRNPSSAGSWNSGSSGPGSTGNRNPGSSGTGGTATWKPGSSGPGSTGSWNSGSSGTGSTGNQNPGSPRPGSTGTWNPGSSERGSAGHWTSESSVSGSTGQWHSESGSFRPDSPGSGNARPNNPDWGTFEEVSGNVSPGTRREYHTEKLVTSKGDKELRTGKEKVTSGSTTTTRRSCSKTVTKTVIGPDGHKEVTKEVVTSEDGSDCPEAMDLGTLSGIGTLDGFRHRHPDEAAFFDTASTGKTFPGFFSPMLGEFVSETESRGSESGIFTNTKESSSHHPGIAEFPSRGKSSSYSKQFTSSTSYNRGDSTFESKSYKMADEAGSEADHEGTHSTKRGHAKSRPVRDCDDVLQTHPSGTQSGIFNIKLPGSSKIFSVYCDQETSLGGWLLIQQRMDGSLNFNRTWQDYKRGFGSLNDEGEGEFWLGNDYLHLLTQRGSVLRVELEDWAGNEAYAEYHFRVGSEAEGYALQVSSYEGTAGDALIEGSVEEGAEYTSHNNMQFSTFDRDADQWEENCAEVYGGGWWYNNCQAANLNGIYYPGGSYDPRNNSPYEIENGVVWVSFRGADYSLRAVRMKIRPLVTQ
UniProt P02671, sequence (P02675 45-491, chain 2 of 3, further chain): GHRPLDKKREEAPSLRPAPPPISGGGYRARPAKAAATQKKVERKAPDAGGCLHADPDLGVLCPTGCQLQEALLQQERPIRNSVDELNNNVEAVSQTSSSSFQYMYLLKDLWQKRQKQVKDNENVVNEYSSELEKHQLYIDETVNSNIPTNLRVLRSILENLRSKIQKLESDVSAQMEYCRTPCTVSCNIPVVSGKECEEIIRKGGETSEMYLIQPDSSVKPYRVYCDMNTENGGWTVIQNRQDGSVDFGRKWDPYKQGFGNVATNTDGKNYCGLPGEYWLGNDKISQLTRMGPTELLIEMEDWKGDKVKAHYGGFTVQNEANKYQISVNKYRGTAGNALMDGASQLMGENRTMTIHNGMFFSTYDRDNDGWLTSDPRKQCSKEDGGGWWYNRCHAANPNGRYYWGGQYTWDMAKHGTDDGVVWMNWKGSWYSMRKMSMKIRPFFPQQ
UniProt P02671, sequence (P02679 27-453, chain 3 of 3, further chain): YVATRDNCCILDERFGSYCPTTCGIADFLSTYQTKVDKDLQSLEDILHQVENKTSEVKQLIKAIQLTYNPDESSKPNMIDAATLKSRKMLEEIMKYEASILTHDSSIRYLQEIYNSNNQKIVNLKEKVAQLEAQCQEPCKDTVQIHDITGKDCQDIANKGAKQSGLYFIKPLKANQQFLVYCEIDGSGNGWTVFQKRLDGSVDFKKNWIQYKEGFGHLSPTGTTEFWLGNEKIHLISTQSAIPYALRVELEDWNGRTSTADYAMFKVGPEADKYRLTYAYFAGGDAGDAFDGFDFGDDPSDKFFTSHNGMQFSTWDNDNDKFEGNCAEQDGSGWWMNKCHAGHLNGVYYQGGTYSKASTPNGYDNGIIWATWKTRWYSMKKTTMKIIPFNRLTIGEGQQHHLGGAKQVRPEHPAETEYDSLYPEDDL

Factor XIII (plasma) (from UniProt P00488)
pKd: 8.00
